According to patent US11306137B2, “Antibody binding agents that bind Acinetobactor and uses thereof” (priority 2015, dated 2022):

Columns and labels:
[1] = system: A. baumannii HUMC1; test: Lethal bloodstream (i.v. tail-vein) infection model, survival; type: in vivo, mice; conditions: i.v. infection; treated i.p. at 1 hr post-infection; C8 150 μg, colistin 0.0125 mg/kg; FIG. 7D
[2] = system: A. baumannii HUMC1; test: Effects of antibody on colistin MIC; type: cell-based
Protocol: The minimum inhibitory concentration (MIC) of colistin for A. baumannii HUMC1 was determined in congruence with standard CLSI methodologies. In brief, A. baumannii HUMC1 was passaged in Mueller Hinton II (MH-II) Broth for 3 hr at 37° C. with shaking then diluting to 5×10^5 CFUs/mL. Colistin was serially diluted across rows of a 96-well plate with 0.1, 1, or 10 μg/mL C8 MAb, which was incubated at 37° C. for 24 hr. The MIC value was read as the lowest concentration that prevented visible growth of bacteria.

[3] = target: T1, outer membrane protein A (OmpA) of A. baumannii (A. baumannii, UniProt Q6RYW5 20-356); test: ELISA with whole OmpA as target (data not shown)
T1 construct: also called whole OmpA
T1 sequence: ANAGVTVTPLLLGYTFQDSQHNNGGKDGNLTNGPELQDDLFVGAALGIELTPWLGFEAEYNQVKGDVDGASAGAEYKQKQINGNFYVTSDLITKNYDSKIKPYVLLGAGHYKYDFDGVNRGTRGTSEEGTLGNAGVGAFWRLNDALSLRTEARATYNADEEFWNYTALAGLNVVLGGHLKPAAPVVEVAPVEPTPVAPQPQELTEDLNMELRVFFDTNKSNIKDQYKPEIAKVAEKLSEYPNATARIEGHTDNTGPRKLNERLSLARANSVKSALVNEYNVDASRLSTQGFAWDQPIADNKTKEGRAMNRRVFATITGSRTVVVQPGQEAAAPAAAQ

[4] = target: T2, DHFR-3Loop fusion protein (mouse (DHFR part)); A. baumannii (OmpA …); test: ELISA with DHFR-3Loop as target (data not shown)
T2 construct: also called DHFR-3 Loop protein; recombinant DHFR-3Loop protein
T2 chain: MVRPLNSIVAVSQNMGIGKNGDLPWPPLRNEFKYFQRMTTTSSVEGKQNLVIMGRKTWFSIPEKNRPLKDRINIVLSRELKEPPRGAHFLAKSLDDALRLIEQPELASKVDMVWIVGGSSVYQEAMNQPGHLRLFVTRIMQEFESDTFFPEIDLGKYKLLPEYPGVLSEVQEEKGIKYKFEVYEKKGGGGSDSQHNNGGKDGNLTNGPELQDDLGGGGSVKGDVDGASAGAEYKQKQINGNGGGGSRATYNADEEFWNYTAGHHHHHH

[5] = system: A. baumannii HUMC1; test: Lethal bloodstream (i.v. tail-vein) infection model, survival; type: in vivo, mice; conditions: 2×10^7 HUMC1 i.v.; treated once i.v., approximately 20 μg
Protocol: To determine if C8 could treat, inhibit and/or prevent A. baumannii induced sepsis, mice were infected i.v. via the tail-vein with 2×10^7 hyper-virulent A. baumannii HUMC1 and were treated once i.v. with either protein-G purified C8 mAb (approximately 10 or 20 μg doses) or an isotype-control antibody in a saline buffer. […] In a second experiment, mice were similarly infected and the C8 MAb was administered once i.v. in saline buffer at a low (5 μg) and very low (0.5 μg) dose.
Male C3HeB/Fe mice (Jackson Labs) between the ages of 7-10 wk were used for all experiments. All animal work was conducted following approval by the Institutional Animal Use and Care Committee at the University of Southern California, in compliance with the recommendations in the Guide for the Care and Use of Laboratory Animals of the National Institutes of Health.
For the bloodstream infection model, mice were infected intravenously via the tail-vein with designated inocula of A. baumannii isolates. An oropharyngeal model of aspiration pneumonia that recapitulates hospital- or ventilator-associated pneumonia (VAP) relevant to ICU populations was used. In brief, mice were sedated with isoflurane, hung by their maxillary incisors, tongues held to prevent swallowing, and 50 μL of bacterial inocula was placed in the trachea to allow inoculation of the organisms into the lungs by reflexive aspiration.

[6] = system: A. baumannii cell surface; test: Flow cytometry binding to A. baumannii cell surface; conditions: HUMC1 strain
Protocol: Hybridoma pre-clones were selected for subcloning based on bacterial cell surface reactivity by flow cytometry. Briefly, A. baumannii was passaged to log phase, stained with the bacterial dye SYTO BC (LifeTech #B7277), then stained with pre-clone supernatant from 96-well plates at 4° C., rinsed, and counter-stained with CF 647-conjugated goat anti-mouse IgG (Sigma-Aldrich, #SAB4600182). Control samples were stained with mouse IgG1 isotype control mAb (R&D Systems, #MAB002). Percent positivity was determined by flow cytometry.
Hybridoma cell lines were propagated in 96-well flat-bottom plates in DMEM-20%, and supernatants were harvested from wells for initial flow cytometry screening to identify antibodies that bound to intact bacteria. In brief, A. baumannii isolates were passaged to log phase, stained with the bacterial dye SYTO BC (LifeTech #B7277), and incubated for 1 hr with undiluted supernatants collected from 96-well plates at 4° C. Cells were washed and counter-stained with a secondary antibody, CF647-conjugated goat anti-mouse IgG (Sigma-Aldrich, #SAB4600182). Control samples were stained with a mouse IgG1 isotype control MAb (R&D Systems, #MAB002) as a negative control, and mouse polyclonal HUMC1-immune serum as a positive control for bacterial binding. Hybridomas that tested positive for bacterial binding were subcloned by limiting dilution into 96-well plates to ensure clonality, expanded, and retested to confirm bacterial binding.

colistin
survival, delayed treatment (monotherapy) [1]: completely ineffective | MIC of colistin against HUMC1 ([2]; colistin alone): 2 mg/L | MIC of colistin against HUMC1 ([2]; in the presence of C8 at 0.1 μg/mL): 2 mg/L | MIC of colistin against HUMC1 ([2]; in the presence of C8 at 1 μg/mL): 2 mg/L | MIC of colistin against HUMC1 ([2]; in the presence of C8 at 10 μg/mL): 2 mg/L

B1: 9.1C8 monoclonal antibody (antibody, V domains shown)
VH: EVQLQQSGPELVKPGASVKISCKASGYSFTGYTMNWVKQSHGKSLEWIGRINPYNGDSFYNQKFKGKATLTVDKSSNIAHMEFLSLTSEDSAVYYCGRSGDGPWFAYWGQGTLVTVSA
VL: LPLSLPVSLGDQASISCRSSQSIVHNNGNTYLEWYLQKPGQSPKLLIYKVSNRFSGVPDRFSGSGSGTDFTLKISRVEAEDLGVYYCFQGSHVPLTFGAGTKLEIKGSRS
notes: also called C8 mAb; C8 MAb
binding result [3]: no binding | binding result [4]: no binding

B2: X1 monoclonal antibody (antibody, V domains shown)
VH: EVQLQQSGPELVKPGASVKISCKASGYSFTGYFMNWVKQSHGKSLEWIGRINPYNGDTFYNQKFKGKATLTVDKSSSTAHMELRSLTSEDSAVYYCARLNYRGAYWGQGTLVTVSA
VL: LPLSLPVSLGDQASISCRSSQSIVHNNGNTYLEWYLQKPGQSPKLLIYKVSNRFSGVPDRFSGSGSGTDFTLKISRVEAEDLGVYYCFQGSHVPLTFGAGTKLEIKGSRS
notes: also called X1 mAb
binding result [3]: no binding | binding result [4]: no binding

B3: R2D2: mouse IgM monoclonal antibody from hybridoma R2D2 (ATCC PTA-122178); light chain SEQ ID NO:28, heavy chain SEQ ID NO:29 (antibody, listed as Mus musculus)
heavy: QVQLKQSGPGLVQPSQSLSITCTVSGFSLTSYGVHWVRQSPGKGLEWLGVIWSGGSTDYNAAFISRLSISKDNSKSQVFFKMNSLQANDTAIYYCARRRRSTAMDYWGQGTSVTVSSESQSFPN
light: DIGMTQSXSPQDMSVGPKVTMSSKCRKSLLNSRNQKKYLTSDQQKPGQYTKSLGDFASISESRVTDRFIGSGSGTDLPLGWGILPPLPLADYFCQQHYSTP
modifications: not fully specified; (8)..(8) Xaa can be any naturally occurring amino acid
protection against infection [5]: protective against infection | binding to the cell surface of A. baumannii by flow cytometry [6]: specifically bound
